Tests used:
Experiment in all cases: cell_activity
[1] = test system: nlsCre recombinase from intron-containing gene (inlscre) S2A (Bacteriophage P1); conditions: pBS210 excision in Nicotiana plumbaginifolia protoplasts, 72 h; also in planta excision in tobacco from pBS229
[2] = test system: nlsCre recombinase S2A (Bacteriophage P1); conditions: pBS210 excision in Nicotiana plumbaginifolia protoplasts, 72 h; pBS210 alone 0
[3] = test system: Cre recombinase S2A (Bacteriophage P1); conditions: pBS210 excision in Nicotiana plumbaginifolia protoplasts, 72 h; pBS210 alone 0

## loxP sites in direct repeat (pBS210, pBS229)
[1]
  activity (GUS units/25 ug protein): 51
[2]
  activity (GUS units/25 ug protein): 141
[3]
  activity (GUS units/25 ug protein): 133

Reference: US20020147168
